# Experimental data from IntAct's records for PubMed 22111578.
# B1: ADP-ribosylation factor 5 (Mus musculus), P84084 (parent)
# chain: MGLTVSALFSRIFGKKQMRILMVGLDAAGKTTILYKLKLGEIVTTIPTIGFNVETVEYKNICFTVWDVGGQDKIRPLWRHYFQNTQGLIFVVDSNDRERVQESADELQKMLQEDELRDAVLLVFANKQDMPNAMPVSELTDKLGLQHLRSRTWYVQATCATQGTGLYDGLDWLSHELSKR
# B2: ADP-ribosylation factor 4 (Mus musculus), P61750 (parent)
# chain: MGLTISSLFSRLFGKKQMRILMVGLDAAGKTTILYKLKLGEIVTTIPTIGFNVETVEYKNICFTVWDVGGQDKIRPLWRHYFQNTQGLIFVVDSNDRERIQEGAAVLQKMLLEDELQDAVLLLFANKQDLPNAMAISEMTDKLGLQSLRNRTWYVQATCATQGTGLYEGLDWLSNELSKR
# Variants of: B1
# Conditions: with caps2_mouse Cadps2, Q8BYR5
row,effect of a mutation on the interaction,Variant
1,disrupting interaction,S6A

# Variants of: B1
# Conditions: with caps2_mouse Cadps2, Q8BYR5
# Remark: another data set of the same source
# Target sequence in this assay (Q8BYR5 whole entry): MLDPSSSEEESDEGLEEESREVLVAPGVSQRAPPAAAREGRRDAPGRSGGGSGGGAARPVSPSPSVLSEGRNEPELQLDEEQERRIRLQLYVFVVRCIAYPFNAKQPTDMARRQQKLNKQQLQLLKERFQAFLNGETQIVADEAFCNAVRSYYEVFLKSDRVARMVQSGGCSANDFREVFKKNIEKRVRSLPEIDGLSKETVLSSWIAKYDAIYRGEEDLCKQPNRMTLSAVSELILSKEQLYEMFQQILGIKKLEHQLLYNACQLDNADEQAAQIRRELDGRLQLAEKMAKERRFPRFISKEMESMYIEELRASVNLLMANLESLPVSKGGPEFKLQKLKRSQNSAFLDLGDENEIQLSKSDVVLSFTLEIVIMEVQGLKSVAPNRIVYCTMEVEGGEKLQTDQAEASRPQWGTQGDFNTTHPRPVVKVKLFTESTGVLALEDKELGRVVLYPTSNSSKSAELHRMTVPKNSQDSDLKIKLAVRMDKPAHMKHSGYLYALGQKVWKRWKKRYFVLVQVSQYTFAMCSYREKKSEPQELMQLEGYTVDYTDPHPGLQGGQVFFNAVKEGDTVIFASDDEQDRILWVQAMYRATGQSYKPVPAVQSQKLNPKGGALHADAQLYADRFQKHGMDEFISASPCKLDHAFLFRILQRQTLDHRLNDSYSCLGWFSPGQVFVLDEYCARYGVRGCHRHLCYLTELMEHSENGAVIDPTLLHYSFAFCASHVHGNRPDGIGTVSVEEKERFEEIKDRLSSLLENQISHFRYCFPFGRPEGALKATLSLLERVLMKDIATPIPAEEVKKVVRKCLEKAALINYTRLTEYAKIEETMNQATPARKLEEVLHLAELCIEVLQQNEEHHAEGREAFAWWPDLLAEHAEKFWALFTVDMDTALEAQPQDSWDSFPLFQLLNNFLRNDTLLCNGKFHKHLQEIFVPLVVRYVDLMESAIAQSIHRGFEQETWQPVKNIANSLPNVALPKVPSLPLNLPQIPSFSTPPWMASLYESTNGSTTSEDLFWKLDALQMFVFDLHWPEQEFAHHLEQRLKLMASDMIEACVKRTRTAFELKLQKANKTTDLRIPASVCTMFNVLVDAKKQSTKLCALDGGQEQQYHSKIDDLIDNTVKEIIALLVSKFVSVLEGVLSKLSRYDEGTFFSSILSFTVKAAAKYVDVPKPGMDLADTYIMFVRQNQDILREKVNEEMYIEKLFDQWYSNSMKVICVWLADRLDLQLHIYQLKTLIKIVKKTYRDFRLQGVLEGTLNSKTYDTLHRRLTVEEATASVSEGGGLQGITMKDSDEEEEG
row,effect of a mutation on the interaction,Variant
1,increasing interaction,T31N

# Variants of: B1
# Conditions: with caps2_mouse Cadps2, Q8BYR5
# Remark: another data set of the same source
# Target sequence in this assay (Q8BYR5 whole entry): as above
row,effect of a mutation on the interaction,Variant
1,disrupting interaction,Q71L

# Variants of: B2
# Conditions: with caps2_mouse Cadps2, Q8BYR5
# Target sequence in this assay (Q8BYR5 whole entry): as above
row,effect of a mutation on the interaction,Variant
1,disrupting interaction,Q71L

# Variants of: B2
# Conditions: with caps2_mouse Cadps2, Q8BYR5
# Remark: another data set of the same source
# Target sequence in this assay (Q8BYR5 whole entry): as above
row,effect of a mutation on the interaction,Variant
1,increasing interaction,T31N
